Results on 13 molecules are retold here after patent US20220106596A1, “A METHOD OF GENE EDITING” (University of Washington, priority 2019, published 2022).

In data set [1] the test system is HT-1080/neo/HPRT editing lines. The data set can be described thus: HPRT gene editing (HAT selection) after shRNA inhibition of selected replication fork proteins. The data set is classed as cell-based, human. The following applies: shRNA induced 24 hours with doxycycline (1 μg/ml); AAV-HPe3 MOI 2×10^4. As for the experimental part:
(§1) To determine the effect of shRNA specific for selected replication fork proteins on gene editing, experiments were performed using the HT-1080/neo/HPRT editing lines. Each gene indicated in Table 8 below was inhibited with a shRNA (sequences provided in Table 7 below) expressed from a lentivirus vector.
(§2) HPRT and neo gene editing frequencies were measured by G418 or HAT selection and normalized to a cell that was not treated with a shRNA.
(§3) Cells were first transduced with a lentivirus expressing a shRNA specific for the targeted genes. 2×10^4 HT-1080 cells transduced with the specific shRNAs were then plated in 6-well plates on day 1, and the expression of the shRNA was induced for 24 hours with doxycycline (1 μg/ml). On day 2, cells were transduced with AAV-HSN or AAV-HPe3 at a MOI of 2×10^4. On day 4, the cells were treated with trypsin and 0.1% of the cells were replated without selection in 6-well plates to determine the number of colony forming units. The remainder of the cells were replated in 6-well plates for further analysis of gene editing frequency.
(§4) On day 5, neo gene correction experiments were performed by the addition of G418 (700 ug/ml) to the experimental plates. On day 16, plates were washed with PBS and the colonies were stained with Coomassie brilliant blue G. The percentage of neo gene correction was calculated as the number of G418-resistant CFU per total CFU for each original well. On day 6, HPRT gene correction experiments were performed by adding 1× HAT (hypoxanthine-aminopterin-thymidine medium) to the experimental plates. On day 16, plates were washed with PBS and the colonies were stained with Coomassie brilliant blue G. The percentage of HPRT gene correction was calculated as the number of HAT-resistant CFU per total CFU for each original well.

Data set [2] deals with HT-1080/neo/HPRT editing lines. The experiment in a line: neo gene editing (G418 selection) after shRNA inhibition of selected replication fork proteins. The data set is classed as cell-based, human. The following applies: shRNA induced 24 hours with doxycycline (1 μg/ml); AAV-HSN MOI 2×10^4. The protocol:
as §1, §2, §3, §4

B1: Sh39: shRNA cloned in pTRIPZ (Dharmacon), target gene BLM; SEQ ID NO: 104 (nucleic acid)
chain: GTTGACAGTGAGCGTAAGCAGCGATGTGATTTGCATTAGTGAAGCCACAGATGTAATGCAAATCACATCGCTGCTTATGCCTACTGCCTC
Take B1: the “HAT (HPRT) gene editing frequency normalized to a cell not treated with a shRNA” value in data set [1] is 3.8. Moreover, the “G418 (neo) gene editing frequency normalized to a cell not treated with a shRNA” value in data set [2] amounted to 1.67.

B2: SH63: shRNA cloned in pTRIPZ (Dharmacon), target gene BLM; SEQ ID NO: 112 (nucleic acid)
chain: GTTGACAGTGAGCGAAGGTTATCTGTGCTACAATTGTAGTGAAGCCACAGATGTACAATTGTAGCACAGATAACCTGTGCCTACTGCCTC
As for B2, the “HAT (HPRT) gene editing frequency normalized to a cell not treated with a shRNA” value in data set [1] is reported as 0.92. Besides, the “G418 (neo) gene editing frequency normalized to a cell not treated with a shRNA” value in data set [2] came to 1.99.

B3: SH7: shRNA cloned in pTRIPZ (Dharmacon), target gene 1B3, POLE4; SEQ ID NO: 101 (nucleic acid)
chain: GTTGACAGTGAGCGCGGAGAGACTTGGATAATGCAATAGTGAAGCCACAGATGTATTGCATTATCCAAGTCTCTCCTTGCCTACTGCCTC
Consider B3, for which the “HAT (HPRT) gene editing frequency normalized to a cell not treated with a shRNA” value in data set [1] was found to be 8.24. For the same molecule, the “G418 (neo) gene editing frequency normalized to a cell not treated with a shRNA” value in data set [2] was determined as 1.57.

B4: SH9: shRNA cloned in pTRIPZ (Dharmacon), target gene 1B5, anapc5; SEQ ID NO: 102 (nucleic acid)
chain: GTTGACAGTGAGCGCGCGCATTATCTCAGCTACTTATAGTGAAGCCACAGATGTATAAGTAGCTGAGATAATGCGCTTGCCTACTGCCTC
For the molecule B4, the “HAT (HPRT) gene editing frequency normalized to a cell not treated with a shRNA” value in data set [1] was determined as 29.10. In data set [2], the “G418 (neo) gene editing frequency normalized to a cell not treated with a shRNA” value is 2.81.

B5: SH61: shRNA cloned in pTRIPZ (Dharmacon), target gene BLM; SEQ ID NO: 110 (nucleic acid)
chain: GTTGACAGTGAGCGAAACCTTCCTATGATATTGATATAGTGAAGCCACAGATGTATATCAATATCATAGGAAGGTTGTGCCTACTGCCTC
Take B5: the “HAT (HPRT) gene editing frequency normalized to a cell not treated with a shRNA” value in data set [1] was found to be 2.82. In addition, in data set [2], the “G418 (neo) gene editing frequency normalized to a cell not treated with a shRNA” value was 2.64.

B6: Sh42: shRNA cloned in pTRIPZ (Dharmacon), target gene 12A5, MEIS2; SEQ ID NO: 107 (nucleic acid)
chain: GTTGACAGTGAGCGCGGACTTTATCAGAAACTCAAATAGTGAAGCCACAGATGTATTTGAGTTTCTGATAAAGTCCTTGCCTACTGCCTC
With B6, the “G418 (neo) gene editing frequency normalized to a cell not treated with a shRNA” value in data set [2] is 1.26.

B7: SH62: shRNA cloned in pTRIPZ (Dharmacon), target gene BLM; SEQ ID NO: 111 (nucleic acid)
chain: GTTGACAGTGAGCGCGGTGTCCATTACTTCAATATTTAGTGAAGCCACAGATGTAAATATTGAAGTAATGGACACCATGCCTACTGCCTC
Regarding B7, the “HAT (HPRT) gene editing frequency normalized to a cell not treated with a shRNA” value in data set [1] is recorded as 2.34. Also, the “G418 (neo) gene editing frequency normalized to a cell not treated with a shRNA” value in data set [2] is given as 2.28.

B8: SH56: shRNA cloned in pTRIPZ (Dharmacon), target gene 12B12, ORC1L; SEQ ID NO: 108 (nucleic acid)
chain: GTTGACAGTGAGCGCGCCACGTTTCAACAGATATATTAGTGAAGCCACAGATGTAATATATCTGTTGAAACGTGGCTTGCCTACTGCCTC
Regarding B8, in data set [1], the “HAT (HPRT) gene editing frequency normalized to a cell not treated with a shRNA” value is given as 2.11. For the same molecule, the “G418 (neo) gene editing frequency normalized to a cell not treated with a shRNA” value in data set [2] is 2.07.

B9: Sh40: shRNA cloned in pTRIPZ (Dharmacon), target gene RMI1/BLAP75; SEQ ID NO: 105 (nucleic acid)
chain: GTTGACAGTGAGCGTGATCTAGTTACAGCTGAAGCATAGTGAAGCCACAGATGTATGCTTCAGCTGTAACTAGATCATGCCTACTGCCTC
B9: the “HAT (HPRT) gene editing frequency normalized to a cell not treated with a shRNA” value in data set [1] was found to be 1.61. In addition, the “G418 (neo) gene editing frequency normalized to a cell not treated with a shRNA” value in data set [2] came to 1.37.

B10: SH79: shRNA cloned in pTRIPZ (Dharmacon), target gene POLA1; SEQ ID NO: 113 (nucleic acid)
chain: GTTGACAGTGAGCGCGCAGATCATGTGTGAGCTAAATAGTGAAGCCACAGATGTATTTAGCTCACACATGATCTGCATGCCTACTGCCTC
modifications: listed as DNA, chemistry not fully specified
Turning to B10, in data set [1], the “HAT (HPRT) gene editing frequency normalized to a cell not treated with a shRNA” value is listed as 2.46. Further, the “G418 (neo) gene editing frequency normalized to a cell not treated with a shRNA” value in data set [2] was determined as 1.24.

B11: Sh41: shRNA cloned in pTRIPZ (Dharmacon), target gene Topo III alpha; SEQ ID NO: 106 (nucleic acid)
chain: GTTGACAGTGAGCGTGGACATTTACTGGCTCATGATTAGTGAAGCCACAGATGTAATCATGAGCCAGTAAATGTCCATGCCTACTGCCTC
Turning to B11, in data set [1], the “HAT (HPRT) gene editing frequency normalized to a cell not treated with a shRNA” value came out at 1.66. Further, the “G418 (neo) gene editing frequency normalized to a cell not treated with a shRNA” value in data set [2] is given as 1.42.

B12: sh15: shRNA cloned in pTRIPZ (Dharmacon), target gene 2b3, pms2; SEQ ID NO: 103 (nucleic acid)
chain: GTTGACAGTGAGCGCCCGTAGTCACTGTATGGAATATAGTGAAGCCACAGATGTATATTCCATACAGTGACTACGGTTGCCTACTGCCTC
B12: the “HAT (HPRT) gene editing frequency normalized to a cell not treated with a shRNA” value in data set [1] stood at 17.59. Further, in data set [2], the “G418 (neo) gene editing frequency normalized to a cell not treated with a shRNA” value amounted to 3.88.

B13: SH60: shRNA cloned in pTRIPZ (Dharmacon), target gene BLM; SEQ ID NO: 109 (nucleic acid)
chain: GTTGACAGTGAGCGCGGAGTCTGCGTGCGAGGATTATAGTGAAGCCACAGATGTATAATCCTCGCACGCAGACTCCTTGCCTACTGCCTC
Regarding B13, the “HAT (HPRT) gene editing frequency normalized to a cell not treated with a shRNA” value in data set [1] is 1.38. Further, in data set [2], the “G418 (neo) gene editing frequency normalized to a cell not treated with a shRNA” value amounted to 2.08.
